Measured values: article PMC6098011, “Insights into degradation mechanism of N-end rule substrates by p62/SQSTM1 autophagy adapter” (Nature Communications, 2018)
Substitutions are numbered along the chain they refer to. Primed or numbered codes have the meaning given here. No end group written: not given here. FITC′ = fluorescein isothiocyanate label

Columns and labels:
[1] = molecular target: the molecule itself; assay: SEC-MALS; physiological pH 7.4; buffer not stated
[2] = molecular target: the molecule itself; assay: SEC-MALS; 50 mM sodium acetate pH 4.5, 100 mM NaCl, 1 mM TCEP
[3] = molecular target: the molecule itself; assay: SEC-MALS; 50 mM Tris pH 8.0, 100 mM NaCl, 1 mM TCEP; 1-3 mg/ml injected; Superdex 200 Increase or Superose 6 Increase
[4] = molecular target: T1, R-BiP peptide (REEEDK–FITC); assay: fluorescence polarisation; FITC-labeled peptide 100 nM, p62 construct titrated 400 nM to 3 mM; 50 mM Tris pH 8.0, 100 mM NaCl, 1 mM DTT; 384-well; conditions: both partners purified
T1 construct: Arg attached to the new N-terminus of cleaved BiP (N-terminal arginylation, R*); BiP/GRP78 from E19 (E19b-E20b-E21b-D22b printed); also called FITC-labeled R-BiP peptide; FITC-labeled R-BiP/GRP78 peptide
T1 peptide: REEEDK-{FITC′}

B1: MBP-fused PB1-ZZ of p62 (residues 1-181) wild type (domain or fragment)
chain: not shown
notes: p62/SQSTM1, human, PB1-ZZ residues 1-181; Oligomeric state depends on pH (hexameric or higher at pH 8.0, polymer at pH 6.0, about a trimer at pH 4.5); also called MBP-PB1-ZZ WT; PB1-ZZ WT
[1]
  stoichiometry N: ≥ 10
[2]
  stoichiometry N: ~3
[3]
  stoichiometry N: ≥ 6

B2: MBP-PB1-ZZ K7A (domain or fragment)
chain: not shown
notes: p62/SQSTM1, human, PB1-ZZ residues 1-181; also called monomeric PB1-ZZ mutant
[4]
  fold higher affinity of PB1-ZZ WT than of this mutant: > 10 fold

B3: MBP-PB1-ZZ N132L (domain or fragment)
chain: not shown
notes: p62/SQSTM1, human, PB1-ZZ residues 1-181
[4]
  fold reduction of affinity against WT: ~30 fold

B4: MBP-PB1-ZZ D69A (domain or fragment)
chain: not shown
notes: as for B2
[4]
  fold higher affinity of PB1-ZZ WT than of this mutant: > 10 fold

B5: MBP-PB1-ZZ D147R (domain or fragment, human, UniProt Q13501 1-181, looked up)
chain: MASLTVKAYLLGKEDAAREIRRFSFCCSPEPEAEAEAAAGPGPCERLLSRVAALFPALRPGGFQAHYRDEDGDLVAFSSDEELTMAMSYVKDDIFRIYIKEKKECRRDHRPPCAQEAPRNMVHPNVICDGCNGPVVGTRYKCSVCPRYDLCSVCEGKGLHRGHTKLAFPSPFGHLSEGFSH
notes: as for B3
[4]
  fold reduction of affinity against WT: ~30 fold

B6: MBP-PB1-ZZ D129N (domain or fragment, human, UniProt Q13501 1-181, looked up)
chain: B5 chain with D129N, R147D
notes: as for B3
[4]
  fold reduction of affinity against WT: ~30 fold

B7: MBP-PB1-ZZ D149R (domain or fragment, human, UniProt Q13501 1-181, looked up)
chain: B5 chain with R147D, D149R
notes: as for B3
[4]
  fold reduction of affinity against WT: ~30 fold

B8: Flag-ZZ (ZZ-domain of p62 with the flag-tag) (domain or fragment)
chain: not shown
[4]
  Kd: > 800 µM
